Results as given in publication PMC7474084.

Biological target: Echovirus 30 (E30) mature virion (F-particle) (Echovirus 30)
Experiment: SPR; BIAcore T100; […]; PBS with 0.05% Tween-20, 25 °C; global fit

Substance	Kd
human CD55, extracellular domain (receptor)	2000 nM
human FcRn, extracellular domain (from UniProt P55899 24-297; P61769 21-119) (receptor)	2000 nM
